Test results reported in patent publication US20050142135A1, “Agents and methods for modulating interactions between gonadotropin hormones and receptors” (University of Kentucky Research Foundation, priority 2003, published 2005).
*1 amine or outer side, *2 acyl side, *3 side chain or, on linkers, in order; H or OH if unused. [ ]: non-standard residue; d: D form. The star is where a group is joined. ABG = 4-azidobenzoyl glycine, attached via its N-hydroxysuccinimide ester, [N-]=[N+]=Nc1ccc(C(=O)NCC(=O)*)cc1; Tyr(125I) = radioiodinated (125I) tyrosine, O=C([C@H](Cc1ccc(O[*:3])c([125I])c1)N[*:1])[*:2]

Tests used:
hCG = target: T1, hCG (Homo sapiens, UniProt P01215+P0DN86); assay: Photoaffinity labeling of hCG with ABG-^125I-LHR^exo3; assay type: binding; conditions: for inhibition of photoaffinity labeling of hCG by ABG-^125I-LHR^exo3: 4 mM of nonlabeled peptide
T1 construct: purchased National Hormone and Pituitary Program
Protocol: A peptide mimic corresponding to the LHR exoloop 3 sequence of K^573 […]^583 (LHR^exo3) was synthesized, to which a Tyr residue was attached to the C-terminus for radioiodination. The N-terminus of the peptide was acetylated and the C-terminus amidated. NHS-ABG was synthesized as previously described and freshly dissolved in dimethyl sulfoxide to a concentration of 50 mM. The reagent was diluted in 0.1 M sodium phosphate (pH 7.5) to a concentration of 20 mM. The reagent solution was immediately used to derivatize receptor peptides. In the dark, […] of NHS-ABG was added to […] of receptor peptides in […] of 0.1 M sodium phosphate (pH 7.5), and the mixture was incubated for 30 minutes at 25° C. […] After 20 seconds, 7 μl of sodium metabisulfite (2.5 mg/ml) in 10 mM Na2 HPO4, pH 7.4, was introduced to terminate radioiodination. Derivatized and radioiodinated ABG-^exo3 I-LHR^exo3 solution was mixed with 60 μl of 16% sucrose solution in PBS and fractionated on Sephadex Superfine G-10 column (0.6×15 cm) using PBS.
(§1) The mixtures were incubated at 37° C. for 90 minutes in the dark, irradiated with Mineralight R-52 UV lamp for 3 minutes as previously described, and solubilized in 2% SDS, 100 mM dithiothreitol and 8 M urea. The samples were electrophoresed on 8-12% polyacrylamide gradient gels. Gels were dried on filter paper and exposed to an imaging screen overnight, which was scanned on a phosphoimager. Exoloop 3 was modeled.

human LH = target: T2, human LH (Homo sapiens, UniProt P01215+P01229); assay: Photoaffinity labeling of LH with ABG-^125I-LHR^exo3; assay type: binding; conditions: increasing concentrations of LH
T2 construct: purchased National Hormone and Pituitary Program
Protocol: The samples were processed.
as §1

[1] = tested on: phospholipase A, phospholipase C, phospholipase D and urokinase; assay: Labeling specificity of ABG-^125I-LHR^exo3 on other proteins; assay type: binding
Protocol: as §1

FSH [2] = target: T3, FSH (Homo sapiens, UniProt P01215+P01225); assay: Photoaffinity labeling of FSH with ^125I-FSHR^9-40F13Bpa; assay type: binding; conditions: increasing concentrations of nonradioactive peptide
T3 construct: purchased National Hormone and Pituitary Program
Protocol: In the dark, 30 μg of receptor peptides in 40 μl of 0.1 M sodium phosphate (pH 7.5). The mixture was incubated for 30 minutes at 25° C. […] After 20 seconds, 7 μl of sodium metabisulfite (2.5 mg/ml) in 10 mM Na2HPO4, pH 7.4, was introduced to terminate radioiodination.
The mixtures were incubated at 37° C. for 90 minutes in the dark, irradiated with a Mineralight R-52 UV lamp for 3 minutes, and solubilized in 2% SDS, 100 mM dithiothreitol and 8 M urea. The samples were electrophoresed on 8-12% polyacrylamide gradient gels. Gels were dried on filter paper and exposed to an imaging screen overnight, which was scanned on a phosphoimager (Molecular Dynamics).
The FSH α and β subunits co-migrate on SDS-PAGE. To separate them on the gel FSH was deglycosylated with PNGase F and after it was photoaffinity labeled. Enzymatic cleavage was done by incubation of the labeled FSH complex with 20 or 50 units of PNGase F (New England BioLabs, Inc., MA) in 40 μl for 18 hours at 37° C. The samples were solubilized in SDS under the reducing condition and electrophoresed on 15% gel containing 9 M urea.

FSH [3] = target: T3, FSH; assay: Photoaffinity labeling of FSH with exoloop 3 peptide (ABG-^125I-FSHR^exo3); assay type: binding; conditions: increasing concentrations of unlabeled FSHR peptides
Protocol: A peptide mimic corresponding to the exoloop 3 sequence of K^580 […]^590 (FSHR exo3) (SEQ ID NO: 3) was synthesized, to which a Tyr residue was attached to the C-terminus for radioiodination. The N-terminus of the peptide was acetylated and the C-terminus amidated. NHS-ABG was synthesized as previously described and freshly dissolved in dimethyl sulfoxide to a concentration of 50 mM and NHS-ABG in 0.1 M sodium phosphate (pH 7.5) to a concentration of 20 mM. These reagent solutions were immediately used to derivatize receptor peptides. In the dark, 10 μl of NHS-ABG was added to […] of receptor peptides in 40 μl of 0.1 M sodium phosphate (pH 7.5). The mixture was incubated with NHS-ABG for 30 minutes at 25° C. […] After 20 sec, 7 μl of sodium metabisulfite (2.5 mg/ml) in 10 mM Na2 HPO4, pH 7.4, was introduced to terminate radioiodination.
Competitive inhibition experiments were carried out for the photoaffinity labeling experiments. 10 μl of PBS was introduced to each tube and the mixture was incubated with 10 μl of increasing concentrations of nonradioactive receptor peptides. The mixtures were incubated at 37° C. for 90 minutes in the dark, irradiated with Mineralight R-52 UV lamp for 3 minutes as previously described, and solubilized in 2% SDS, 100 mM dithiothreitol and 8 M urea. The samples were electrophoresed on 8-12% polyacrylamide gradient gels. […]

FSHR = assay: Inhibition of ^125I-FSH binding to the receptor on intact cells by exoloop 3 peptide; design: species or system human
Protocol: The FSH a and b subunits separated in the lower band and upper band, respectively.
Human FSH (the National Hormone and Pituitary Program) was radioiodinated as previously described for radioiodination of hCG. […] The Kd values were determined by Scatchard plots. Truncated exodomain was solubilized in Nonidet P-40 and assayed for hormone binding as described previously. For intracellular cAMP assay, cells were washed twice with Dulbecco's modified Eagle's media and incubated in the media containing isobutylmethylxanthine (0.1 mg/ml) for 15 minutes. Increasing concentrations of FSH were then added and the incubation was continued for 45 minutes at 37° C. After removing the media, the cells were rinsed once with fresh media without isobutylmethylxanthine, lysed in 70% ethanol, freeze-thawed in liquid nitrogen, and scraped. […] Exoloop 3 of FSHR was modeled based on the crystal structure of rhodopsin as a template.

LHR = target: T4, LHR (Homo sapiens, UniProt P22888); assay: Inhibition of ^125I-hCG binding to cells stably expressing LHR; conditions: increasing concentrations of nonradioactive competitor
T4 construct: expressed in transfected cells
Protocol: The cells were washed and bound radioactivity was measured.
The Kd values were determined by Scatchard plots. For intracellular cAMP assay, cells were washed twice with Dulbecco's modified Eagle's media and incubated in the media containing isobutylmethylxanthine (0.1 mg/ml) for 15 minutes. Increasing concentrations of hormone were then added and the incubation was continued for 45 minutes at 37° C. After removing the media, the cells were rinsed once with fresh media without isobutylmethylxanthine, lysed in 70% ethanol, freeze-thawed in liquid nitrogen, and scraped.

human LHR = assay: Inositol phosphate assay, LHR exoloop 3 mutants in HEK 293 cells, hCG stimulated; assay type: cell-based; conditions: NS = not significant
Protocol: Stable cells were plated in 12 well plates and grown in inositol free DMEM (Atlanta Biologicals) supplemented with 8% heat-inactivated horse serum and […] [^3H]inositol (NEN) for 48 hours to 40-50% confluency. After removing the medium, the cells were incubated in 1 ml of fresh wash buffer consisting of DMEM w/o inositol and 15 mM HEPES (pH 7.3) for 1 hour at 37° C. This medium was removed and 0.3 ml wash buffer containing 20 mM LiCl was added and incubated for 15 minutes at 37° C. After the cells were stimulated with increasing concentrations of hormone for 30 minutes at 37° C., the incubation was terminated by the removal of medium and the addition of 0.25 ml of 0.6 N HCl to each well. The cells were scraped, transferred into microcentrifuge tubes and the wells were again washed with 0.25 ml of 0.6 N HCl. The combined washes were treated with 0.9 ml of a mixture of chloroform:methanol (2:1), vortexed and centrifuged at 1000×g for 5 minutes at room temperature. The top aqueous layer, which was free of phospholipids, was removed and the remaining chloroform layer treated with 0.2 ml of methanol:water (1:1), vortexed and centrifuged, as above. This aqueous layer was added to the previous aqueous layer and the samples dried in a vacuum concentrator. […] Aliquots of 200 μl were counted for radioactivity in 1.5 ml of Ultima AF scintillation fluid (Packard). […]

T1 sequence (P01215 25-116, other chains not shown): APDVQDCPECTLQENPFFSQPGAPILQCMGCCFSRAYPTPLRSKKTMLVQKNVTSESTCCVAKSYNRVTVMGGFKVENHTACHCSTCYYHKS
T3 sequence (P01215 25-116): as the sequence (P01215 25-116, other chains not shown) above
T3 sequence (P01225 19-129): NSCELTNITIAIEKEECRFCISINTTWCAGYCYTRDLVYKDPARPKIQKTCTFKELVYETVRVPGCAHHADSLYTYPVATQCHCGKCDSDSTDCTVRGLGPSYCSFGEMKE
Chain of FSHR (P23945 18-695): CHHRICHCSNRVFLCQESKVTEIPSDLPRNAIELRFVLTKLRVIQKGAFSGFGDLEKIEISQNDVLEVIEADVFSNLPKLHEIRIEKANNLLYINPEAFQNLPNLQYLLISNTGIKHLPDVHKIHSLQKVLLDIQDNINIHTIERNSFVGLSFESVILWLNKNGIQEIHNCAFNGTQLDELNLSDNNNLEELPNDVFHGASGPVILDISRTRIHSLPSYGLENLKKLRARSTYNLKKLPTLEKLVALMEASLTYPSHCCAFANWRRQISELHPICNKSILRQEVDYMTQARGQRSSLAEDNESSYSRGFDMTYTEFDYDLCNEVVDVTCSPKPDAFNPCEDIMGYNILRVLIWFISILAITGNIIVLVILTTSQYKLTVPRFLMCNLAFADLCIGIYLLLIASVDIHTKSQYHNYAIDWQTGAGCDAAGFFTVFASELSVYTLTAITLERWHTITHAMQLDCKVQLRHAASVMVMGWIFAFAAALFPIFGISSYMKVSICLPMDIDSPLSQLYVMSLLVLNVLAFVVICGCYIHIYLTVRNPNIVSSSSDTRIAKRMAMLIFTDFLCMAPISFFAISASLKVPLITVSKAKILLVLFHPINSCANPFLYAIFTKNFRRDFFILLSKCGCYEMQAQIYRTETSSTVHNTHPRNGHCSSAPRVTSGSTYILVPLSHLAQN
T4 sequence (P22888 27-699): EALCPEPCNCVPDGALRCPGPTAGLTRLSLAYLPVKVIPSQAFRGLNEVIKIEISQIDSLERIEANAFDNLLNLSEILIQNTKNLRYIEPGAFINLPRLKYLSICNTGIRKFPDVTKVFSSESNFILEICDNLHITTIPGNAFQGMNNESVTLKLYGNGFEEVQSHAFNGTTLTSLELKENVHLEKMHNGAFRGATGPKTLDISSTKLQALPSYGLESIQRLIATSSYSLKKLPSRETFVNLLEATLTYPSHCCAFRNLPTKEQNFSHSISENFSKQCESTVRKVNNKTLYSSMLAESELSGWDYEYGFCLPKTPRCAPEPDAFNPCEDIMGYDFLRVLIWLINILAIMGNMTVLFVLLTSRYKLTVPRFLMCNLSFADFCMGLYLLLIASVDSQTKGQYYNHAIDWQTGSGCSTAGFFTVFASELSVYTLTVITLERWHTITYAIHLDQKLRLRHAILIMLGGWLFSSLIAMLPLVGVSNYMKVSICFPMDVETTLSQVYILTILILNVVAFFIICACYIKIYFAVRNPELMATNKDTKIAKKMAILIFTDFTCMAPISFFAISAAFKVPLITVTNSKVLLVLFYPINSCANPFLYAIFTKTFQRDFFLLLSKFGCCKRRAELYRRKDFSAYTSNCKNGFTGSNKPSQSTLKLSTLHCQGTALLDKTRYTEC
T2 sequence (P01215 25-116): as the sequence (P01215 25-116, other chains not shown) above
T2 sequence (P01229 21-141): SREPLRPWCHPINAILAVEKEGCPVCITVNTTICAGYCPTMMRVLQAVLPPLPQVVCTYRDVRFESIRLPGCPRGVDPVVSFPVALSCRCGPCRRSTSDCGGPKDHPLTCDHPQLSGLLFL
Chain of human LHR (P22888 27-363 limits assumed): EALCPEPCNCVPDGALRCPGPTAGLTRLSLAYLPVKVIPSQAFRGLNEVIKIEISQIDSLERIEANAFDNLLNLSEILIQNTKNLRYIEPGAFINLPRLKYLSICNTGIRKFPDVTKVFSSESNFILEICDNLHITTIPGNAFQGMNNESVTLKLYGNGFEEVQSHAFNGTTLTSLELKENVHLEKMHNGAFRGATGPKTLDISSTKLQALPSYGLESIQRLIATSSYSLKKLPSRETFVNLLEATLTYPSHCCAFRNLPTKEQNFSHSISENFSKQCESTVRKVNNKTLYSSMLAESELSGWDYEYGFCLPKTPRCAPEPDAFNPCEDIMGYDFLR

ABG-^125I-LHR^exo3: LHR exoloop 3 peptide derivatized with N-hydroxysuccinimide of 4-azidobenzoyl glycine and radio-iodinated (Ac-KVPLITVTNSK(ABG)[Tyr(125I)]-NH2; also: derivatized with N-hydroxysuccinimide ester of 4-azidobenzoyl glycine, radio-iodinated (125I))
labeled hCG subunits (hCG): the a band labeled slightly more than the β band
hCG concentration at which the maximum labeling was reached (hCG; both hormone subunits, constant amount of probe): 50 nM
photoaffinity labeling of denatured hCG (hCG; hCG boiled in 8 M urea): not labeled at all
photoaffinity labeling of LH subunits (human LH): Both of the α and β subunits of LH were labeled
photoaffinity labeling of phospholipase A, phospholipase C, phospholipase D and urokinase [1]: not photoaffinity labeled

FSHR^9-40: peptide mimic of FSH receptor sequence S9-K40, SNRVFLCQESKVTEIPSDLPRNAIELRFVLTK (SEQ ID NO: 2) (Ac-YSNRVFLCQESKVTEIPSDLPRNAIELRFVLTK-NH2; not fully specified (some residues); printed as S9NRVFLCQESKVTEIPSDLPRNAIELRFVLTK40)
inhibition of photoaffinity labeling of FSH by ^125I-FSHR^9-40F13Bpa (FSH [2]): inhibited the photoaffinity labeling in a dose dependent manner
inhibition of photoaffinity labeling of FSH by ^125I-ABG-FSHR^exo3 (FSH [3]): inhibited the photoaffinity labeling in a dose dependent manner

FSHR^exo3: peptide mimic of FSHR exoloop 3, KVPLITVSKAK (SEQ ID NO: 3), C-terminal Tyr, N-acetylated, C-amidated (Ac-KVPLITVSKAKY-NH2)
inhibition of photoaffinity labeling of FSH by ^125I-ABG-FSHR^exo3 (FSH [3]): inhibited the photoaffinity labeling in a dose dependent manner
inhibition of ^125I-FSH binding to the receptor on intact cells (FSHR): inhibited ^125I-FSH binding to the receptor on intact cells in a dose dependent manner

LHR^18-36: N-terminal peptide of the LHR exodomain (CPGPTAGLTRLSLAYLPVK)
inhibition of photoaffinity labeling of hCG by ABG-^125I-LHR^exo3 (hCG): failed to inhibit the labeling

LHR^exo3: peptide mimic of LHR exoloop 3, KVPLITVTNSK, C-terminal Tyr, N-acetylated, C-amidated (Ac-KVPLITVTNSKY-NH2)
inhibition of photoaffinity labeling of hCG by ABG-^125I-LHR^exo3 (hCG): blocked the labeling
inhibition of ^125I-hCG binding to LHR (LHR): inhibited ^125I-hCG binding to LHR

Wildtype: wild type human LH receptor expressed in HEK 293 cells (Table II)
IP1 (cpm) (human LHR): 13,780-w cpm
